The nature of the data set: protein stability index of a GFP-peptide fusion (GPS, HEK-293T) (PSI 1-6); higher = more stable. As to conditions: c terminus: a fixed tail appended.

The values that follow come from the supplement of paper PMC10567573.

± gives the standard deviation.
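Note: 24-mer peptide tiles fused after GFP, lentivirally expressed, FACS-sorted into six equal bins by GFP/DsRed ratio, decoded by Illumina sequencing, PSI is the read-weighted mean bin number.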

Turning to NYVAKNFAQALGCVLYACFILGRL [SOAT2], the protein stability index is, setting by setting: (treatment: DMSO) 3.46 ± 0.38; (treatment: MLN4924 1 uM, 8 h) 2.85 ± 0.38.

With PAAPGAGGGSGSAPGPSRIADYLL [TRIB1], the protein stability index was 4.02 ± 0.68 (treatment: DMSO) and 4.14 ± 0.21 (treatment: MLN4924 1 uM, 8 h).

For PAGEMKPMPLSEGKSILLFGGAAA [BCL2L13], the protein stability index amounted to 3.53 ± 0.15 (treatment: DMSO) and 3.75 ± 0.27 (treatment: MLN4924 1 uM, 8 h).

PCLGHTFNAGIQQAFQLPKLGALL [ZBED1] displayed a protein stability index (treatment: DMSO) of 2.36 ± 0.37 and a protein stability index (treatment: MLN4924 1 uM, 8 h) of 2.02 ± 0.24.

Turning to PCLLGSRVFSQGSHAWEVALGGLQ [TRIM35], the protein stability index by setting is: (treatment: DMSO) 2.36 ± 0.15; (treatment: MLN4924 1 uM, 8 h) 2.35 ± 0.19.

Turning to PDLRDIELKLGRKVPESLVRSLRG [LURAP1L], the protein stability index reads like this: (treatment: DMSO) 3.16 ± 0.4; (treatment: MLN4924 1 uM, 8 h) 3.17 ± 0.41.

With PECTRCGHGIVGTIVKARDKLYHP [PDLIM4], the protein stability index turned out to be 2.35 ± 0.13 (treatment: DMSO) and 2.56 ± 0.21 (treatment: MLN4924 1 uM, 8 h).

On to PEGPEPAAPGKQPGRGHTHAAQGG [ELOA2], for which the protein stability index is, setting by setting: (treatment: DMSO) 5.39 ± 0.27; (treatment: MLN4924 1 uM, 8 h) 5.51 ± 0.16.

As for PEKLIWGDQDPLSKIPFKILSGHE [WDR88], the protein stability index (treatment: DMSO) is 3.43 ± 0.85 and the protein stability index (treatment: MLN4924 1 uM, 8 h) was found to be 3.45 ± 0.44.

Regarding PEMRWNKGTILKASVDYIRKLQKE [TFE3], the protein stability index reads like this: (treatment: DMSO) 2.91 ± 0.24; (treatment: MLN4924 1 uM, 8 h) 2.95 ± 0.17.

As to PEPWPGGCTGDEAESRGHSKGWGR [MYCL], the protein stability index turned out to be 4.18 ± 0.12 (treatment: DMSO) and 4.46 ± 0.56 (treatment: MLN4924 1 uM, 8 h).

As for PGEPNNAGNNEHCGNIKAPSLQAW [CD207], the protein stability index by setting is: (treatment: DMSO) 4.38 ± 0.12; (treatment: MLN4924 1 uM, 8 h) 4.21 ± 0.078.

For PGFSSLSLSDQMSVLQSVWMEVLV [ESRRA], the protein stability index runs as follows: (treatment: DMSO) 2.38 ± 0.33; (treatment: MLN4924 1 uM, 8 h) 2.08 ± 0.27.

For the sequence PGGDQGGPPVGPLSLGLATVDIQN [WAS], the protein stability index turned out to be 4.75 ± 0.22 (treatment: DMSO) and 4.71 ± 0.087 (treatment: MLN4924 1 uM, 8 h).

On to PGGPCDSTLGGDIRESDPEQAPAP [TBX6], for which the protein stability index runs as follows: (treatment: DMSO) 5.49 ± 0.16; (treatment: MLN4924 1 uM, 8 h) 5.44 ± 0.29.

Take PGKETLESALIALDSEKPKKLRFH [EHMT1]: the protein stability index (treatment: DMSO) is 4.06 ± 0.24 and the protein stability index (treatment: MLN4924 1 uM, 8 h) was found to be 4.11 ± 0.45.

Turning to PGNQAEHGAVTVGGTSVGSLGVPG [ZBTB22], the protein stability index is, setting by setting: (treatment: DMSO) 4.89 ± 0.25; (treatment: MLN4924 1 uM, 8 h) 4.75 ± 0.26.

Consider PGYPKMIAHDFPGIGHKVDAVFMK [MMP1], for which the protein stability index is 2.75 ± 0.17 (treatment: DMSO) and 3.02 ± 0.33 (treatment: MLN4924 1 uM, 8 h).

With PHFLQGGPFPLPYTAPGGYLDVGS [TBX6], the protein stability index reads like this: (treatment: DMSO) 2.93 ± 0.56; (treatment: MLN4924 1 uM, 8 h) 2.76 ± 0.33.

In the case of PHLMQEHMGTNVIVANTMPTHLSN [HNF4A], the protein stability index (treatment: DMSO) was determined as 3.83 ± 0.19 and the protein stability index (treatment: MLN4924 1 uM, 8 h) amounted to 3.97 ± 0.24.

PISVHCSAGVGRTGVFITLSIVLE [PTPRD]: the protein stability index reads like this: (treatment: DMSO) 2.96 ± 0.26; (treatment: MLN4924 1 uM, 8 h) 2.6 ± 0.21.

As for PITRKAAQLYTLWVTFQVLLYTSL [DHCR7], the protein stability index amounted to 3.07 ± 0.22 (treatment: DMSO) and 2.56 ± 0.51 (treatment: MLN4924 1 uM, 8 h).

PKDLDPSLCTHLIYAFAGMTNHQL [CHIT1]: the protein stability index (treatment: DMSO) amounted to 2.75 ± 0.44 and the protein stability index (treatment: MLN4924 1 uM, 8 h) is 2.46 ± 0.6.

As to PLGGGVGGQDGLGAPKDQQQPPQQ [KLHL14], the protein stability index by setting is: (treatment: DMSO) 5.31 ± 0.39; (treatment: MLN4924 1 uM, 8 h) 5.33 ± 0.26.

With PLLLSHTLQELLARDTVQVELIPE [SNX8], the protein stability index (treatment: DMSO) was determined as 2.71 ± 0.23 and the protein stability index (treatment: MLN4924 1 uM, 8 h) amounted to 2.73 ± 0.31.

In the case of PNCLSMGSRCLKTFEVPEENTAET [ZBED1], the protein stability index is, setting by setting: (treatment: DMSO) 4.89 ± 0.39; (treatment: MLN4924 1 uM, 8 h) 4.93 ± 0.15.

Regarding PPGIPPLMPGVPPLMPGMPPVMPG [ZNF207], the protein stability index was 3.9 ± 0.23 (treatment: DMSO) and 4.07 ± 0.21 (treatment: MLN4924 1 uM, 8 h).

As for PPHICWDETHFGKMGSYYINRTFF [POMT2], the protein stability index runs as follows: (treatment: DMSO) 2.1 ± 0.44; (treatment: MLN4924 1 uM, 8 h) 2.23 ± 0.4.

As to PPLNPTSWWADLRALARNLIFGLI [SPNS1], the protein stability index by setting is: (treatment: DMSO) 4.75 ± 0.3; (treatment: MLN4924 1 uM, 8 h) 4.74 ± 0.32.

Take PPLRLWRSVIEVPAVPEEILKRLL [DLC1]: the protein stability index reads like this: (treatment: DMSO) 2.26 ± 0.46; (treatment: MLN4924 1 uM, 8 h) 2.43 ± 0.18.

For PPPAYEPPAPAPLPPPSAPSLQPS [SCAMP3], the protein stability index runs as follows: (treatment: DMSO) 5.04 ± 0.18; (treatment: MLN4924 1 uM, 8 h) 4.97 ± 0.11.

The sequence PPPLTSPSHGSLSHSKAPSGSQMS [NCF4] displayed a protein stability index (treatment: DMSO) of 4.83 ± 0.23 and a protein stability index (treatment: MLN4924 1 uM, 8 h) of 4.92 ± 0.35.

In turn, PPQPCATACKPVIRVPSVPPVPCV [KRT36] gave a protein stability index (treatment: DMSO) of 2.9 ± 0.28 and a protein stability index (treatment: MLN4924 1 uM, 8 h) of 2.91 ± 0.16.

PPWGLGPGAGDPAPGIGPPEPWPG [MYCL]: the protein stability index runs as follows: (treatment: DMSO) 3.63 ± 0.39; (treatment: MLN4924 1 uM, 8 h) 3.92 ± 0.058.

Regarding PQCIKEEDTPSDNDSGICMSPESY [ATF4], the protein stability index runs as follows: (treatment: DMSO) 5.2 ± 0.23; (treatment: MLN4924 1 uM, 8 h) 5.28 ± 0.1.

As to PQKRKPQEQLLECNKLCGRGQSRQ [SLC2A12], the protein stability index (treatment: DMSO) is 4.1 ± 0.37 and the protein stability index (treatment: MLN4924 1 uM, 8 h) amounted to 4.4 ± 0.056.
